Sequences and labels used below:
T1: human MSLN-R1-his protein (human, UniProt Q13421 296-390)
T1 construct: also called hMSLN-R1-his; human MSLN-R1 protein; not shown: His tag
T1 chain: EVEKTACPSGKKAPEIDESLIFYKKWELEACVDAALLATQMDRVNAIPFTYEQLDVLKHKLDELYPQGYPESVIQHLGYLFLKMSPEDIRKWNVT

B1: S009-F1.25.10 human-murine chimeric antibody (antibody, human IgG1, kappa, V domains shown)
VH: EVQLQQSGPELVKPGASLKISCKASGYSFTDYTMNWVKQSHGKNLEWIGLFNPYNGGISYNQKFKGKATLTVDKSSNTAYMELLSLTSDDSAVYFCARDGRGGFYAMDYWGQGTSVTVSS
VL: DIQMTQTTSSLSASLGDRVTISCRASQDISIYLNWYQQKPDGPVKLLIYYTSRLHSGVPSRFSGSGSGTDFSLTISNLEQEDIATYFCQQGYTLPPWTFGGGTKLEIKR
notes: Chimeric IgG1/kappa
B2: S009-F1.57.1 human-murine chimeric antibody (antibody, human IgG1, kappa, V domains shown)
VH: EAQLQQSGAVFVKPGASVKLSCTASGFSSKDIFLHWVKQRPEQGLEWIGRIDPASDNTIYDPKFQDRATITSDRSSNTAYLQFSSLTSEDTAVYFCLYFDFWGQGTTLTVSS
VL: DIVMTQATPSISVTPGESVSISCRSSESLLHSNGNTYLYWFLQRPGQSPQLLIYRMSNLASGVPDRFSVSGSGTAFTLRISRVEAEDVGVYYCMQHLEYPLTFGAGTKLELKR
notes: Chimeric IgG1/kappa
B3: S009-F1.59.1 human-murine chimeric antibody (antibody, human IgG1, kappa, V domains shown)
VH: EVKLEGSGGGLVQPGGSMMLSCVATGFTFSSYWMNWVRQSPDRGLEWVAEIRLKSNGFAAFYAESVKGRFTISRDDSKSSVYLQMNNLRTEDTGIYYCTYFVHWGQGILVTVSE
VL: DIVLTQSPTSLAVSLGQRATISCRTSESVEYFGTILIQWYQQKPGQPPKLLIFGASNVESGVPARFSGSGSGTDFSLNIHPVEEEDIAMYFCQQNRKVPYTFGGGTTLELKR
notes: Chimeric IgG1/kappa
B4: S009-F1.56.1 human-murine chimeric antibody (antibody, human IgG1, kappa, V domains shown)
VH: EVQLQQSGAEVVKPGASVKLSCTASGFNIRHTYMHWVKQRPEQGLEWIGRIDPANGNTEYDPKFQGKATITADTSSNTAYLQLSSLTSEDTAVYYCARDGWYIDVWGAGTTVTVSS
VL: DIVMSQSPSSLAVSVGEKVTMSCKSSQSLLYSNNQKNYLAWYQQKPGQSPKLLIYWASTRESGVPDRFTGSGSGTDFTLTISSVKAEDLAVYYCQRYYSYPWTFGGGTKLEIKR
notes: Chimeric IgG1/kappa
B5: S009-F1.2.12 human-murine chimeric antibody (antibody, human IgG1, kappa, V domains shown)
VH: QVQLKQTGPGLVQPSQSLSITCTVSGFSLTNYAVHWVRQSPGKGLEWLGVIWSGGATDYNTVFISRLSISKDNSKSQVFFKVNSLQVDDTAIYYCARTGSGYAMDYWGQGTSVTVSS
VL: DIVLTQSPATLSVTPGDRVSLSCRTSHNVNTYLHWYQQKSHESPRLLIKYASQSISEIPSRFSGSGSGTNFTLSINSVETEDFGMYFCHQTNRWPLTFGAGTKLELKR
notes: Chimeric IgG1/kappa
B6: S009-F1.7.14 human-murine chimeric antibody (antibody, human IgG1, kappa)
heavy: not shown
light: QIVLTQSPAIMSASPGEKVTISCSASSSVSYMYWYQQKPGSSPKPWISRTSNLASGVPARFSGSGSGTSYSLTISSMEAEDAATYYCQQYHSYPPTLGAGTKLELKRTVAAPSVFIFPPSDEQLKSGTASVVCLLNNFYPREAKVQWKVDNALQSGNSQESVTEQDSKDSTYSLSSTLTLSKADYEKHKVYACEVTHQGLSSPVTKSFNRGEC
notes: Chimeric IgG1/kappa
B7: S009-F1.35.24 human-murine chimeric antibody (antibody, human IgG1, kappa, V domains shown)
VH: EVQLQQSEPELVKPGASVRISCKASGYSFTDYYMHWVKQSPENRLEWIGEINPSTGGTSYNPKFKDKATLTVDKSSSTAYMQLKSLTSEESAVYYCTRYHYYGSSSYVMDYWGQGTSVTVSS
VL: QIVLTQSPAILSASPGERVTMTCSASSSVYHMHWFQQKSGTSPKRWVYDTSKLASGVPARFSGSGSGTSYSLTISSMEAEDAATYYCQHWRTNPLTFGAGTKLELKR
notes: Chimeric IgG1/kappa

The target in one assay is T2, human MSLN-FL-his protein (human, UniProt Q13421 296-580).
T2 construct: also called hMSLN-FL-his; human MSLN full-length protein; not shown: His tag
Put plainly: ELISA, coated antigen; antibody 1 nM.
Regarding B1, the OD450 was 2.3.
B2: the OD450 turned out to be 2.03.
The molecule B3 displayed an OD450 of 2.31.
B4 showed an OD450 of 2.3.
The same measure, in the same setting: the value for B5 was 2.27.
In turn, B6 gave an OD450 of 1.43.
Molecule B7 showed an OD450 of 2.22.

The target in a further assay is T1, human MSLN-R1-his protein. Briefly: ELISA, coated antigen; antibody 1 nM. A general note: ELISA stands for enzyme-linked immunosorbent assay.
Procedure: (§1) The plate was sealed with a plastic film and incubated at 4° C. overnight. The next day, the plate was washed twice with PBST, and a blocking buffer [PBS+2% (w/w) BSA] was added for blocking at room temperature for 2 h. The blocking buffer was discarded, and a chimeric antibody or negative control antibody serially diluted from 100 nM was added at 50 μL/well. After incubation at 37° C. for 2 h, the plate was washed 3 times with PBST. […] After incubation at 37° C. for 2 h, the plate was washed 5 times with PBST. A TMB substrate was added at 50 μL/well for incubation at room temperature for 5-10 min, and then a stop solution (1.0 N HCl) was added at 50 μL/well.
As for B1, the OD450 was 0.03.
The molecule B2 showed an OD450 of 0.03.
As to B3, the OD450 worked out at 0.03.
On the same count and under the same terms, the value for B4 was 0.05.
The molecule B5 had an OD450 of 0.04.
As to B6, the OD450 is 0.05.
With B7, the OD450 came to 0.04.

A further assay concerns the target T2, human MSLN-FL-his protein. Briefly: ELISA, coated antigen; antibody 10 nM.
Procedure: as §1
In turn, B1 returned an OD450 of 2.44.
In the case of B2, the OD450 was 2.42.
Molecule B3 had an OD450 of 2.38.
Still for that read-out and setting: the value for B4 was 2.44; that for B5 was 2.31.
Molecule B6 gave an OD450 of 2.05.
Molecule B7 had an OD450 of 2.27.

In a further assay the target is T1, human MSLN-R1-his protein. Put plainly: ELISA, coated antigen; antibody 10 nM.
Procedure: as §1
Consider B1, for which the OD450 was found to be 0.04.
As for B2, the OD450 was determined as 0.04.
Regarding B3, the OD450 was found to be 0.04.
Consider B4, for which the OD450 amounted to 0.06.
The molecule B5 displayed an OD450 of 0.05.
With B6, the OD450 is 0.07.
Molecule B7 returned an OD450 of 0.04.

In another assay the target is T2, human MSLN-FL-his protein. Briefly: ELISA, coated antigen; antibody 0.1 nM.
Procedure: as §1
The molecule B1 returned an OD450 of 1.67.
On to B2, for which the OD450 is 0.82.
B3: the OD450 was found to be 1.76.
B4 gave an OD450 of 1.83.
The same measure, in the same setting: under B5 stands 1.75.
B6 came in with an OD450 of 0.3.
B7: the OD450 worked out at 1.62.

The target of a further assay is T2, human MSLN-FL-his protein. Briefly: ELISA, coated antigen; antibody 100 nM.
Procedure: as §1
As for B1, the OD450 was 2.57.
B2 registered an OD450 of 2.51.
Still for that read-out and setting: under B3 stands 2.65.
Molecule B4 registered an OD450 of 2.74.
Same read-out and setting: under B5 stands 2.74; under B6, 2.59.
As to B7, the OD450 worked out at 2.48.

For the next assay, the target named is T1, human MSLN-R1-his protein. Put plainly: ELISA, coated antigen; antibody 0.1 nM.
Procedure: as §1
As for B1, the OD450 stood at 0.03.
With B2, the OD450 amounted to 0.03.
Molecule B3 registered an OD450 of 0.03.
As to B4, the OD450 amounted to 0.04.
B5: the OD450 is 0.05.
Consider B6, for which the OD450 stood at 0.05.
B7 showed an OD450 of 0.04.

The next assay concerns the target T1, human MSLN-R1-his protein. Briefly: ELISA, coated antigen; antibody 100 nM.
Procedure: as §1
Turning to B1, the OD450 came to 0.05.
In turn, B2 had an OD450 of 0.07.
In the case of B3, the OD450 was determined as 0.06.
As for B4, the OD450 is 0.12.
Regarding B5, the OD450 turned out to be 0.05.
Still for that read-out and setting: the value for B6 was 0.27; that for B7 was 0.06.

A further assay addresses T2, human MSLN-FL-his protein. Put plainly: ELISA, coated antigen; antibody 0.01 nM.
Procedure: as §1
B1 had an OD450 of 0.43.
As for B2, the OD450 was found to be 0.15.
For B3, the OD450 is 0.47.
On to B4, for which the OD450 turned out to be 0.55.
The molecule B5 came in with an OD450 of 0.49.
Take B6: the OD450 came out at 0.08.
B7 yielded an OD450 of 0.41.

A further assay deals with T1, human MSLN-R1-his protein. Briefly: ELISA, coated antigen; antibody 0.01 nM.
Procedure: as §1
For B1, the OD450 is 0.04.
B2: the OD450 is 0.05.
As to B3, the OD450 stood at 0.05.
B4 yielded an OD450 of 0.03.
As to B5, the OD450 amounted to 0.04.
Still for that read-out and setting: the value for B6 was 0.04.
On to B7, for which the OD450 turned out to be 0.04.

The next assay concerns the target T2, human MSLN-FL-his protein. Put plainly: ELISA, coated antigen; antibody 0.001 nM.
Procedure: as §1
B1: the OD450 came to 0.1.
Same read-out and setting: under B2 stands 0.06.
Molecule B3 displayed an OD450 of 0.1.
Consider B4, for which the OD450 came out at 0.11.
As for B5, the OD450 is 0.11.
With B6, the OD450 came out at 0.06.
As for B7, the OD450 stood at 0.09.

The next assay addresses T1, human MSLN-R1-his protein. Put plainly: ELISA, coated antigen; antibody 0.001 nM.
Procedure: as §1
B1 displayed an OD450 of 0.05.
The same measure, in the same setting: the value for B2 was 0.04; that for B3 was 0.04; that for B4 was 0.05.
As for B5, the OD450 stood at 0.05.
As to B6, the OD450 was 0.04.
Same read-out and setting: under B7 stands 0.04.

The target of the next assay is T2, human MSLN-FL-his protein. Put plainly: ELISA, coated antigen; antibody 0.0001 nM.
Procedure: as §1
For the molecule B1, the OD450 stood at 0.06.
In the case of B2, the OD450 was 0.05.
Molecule B3 displayed an OD450 of 0.06.
Turning to B4, the OD450 worked out at 0.05.
As for B5, the OD450 came out at 0.06.
B6 came in with an OD450 of 0.06.
B7: the OD450 was 0.06.

Another assay has as its target T1, human MSLN-R1-his protein. Briefly: ELISA, coated antigen; antibody 0.0001 nM.
Procedure: as §1
On to B1, for which the OD450 is 0.04.
B2 came in with an OD450 of 0.04.
Take B3: the OD450 was found to be 0.03.
Regarding B4, the OD450 is 0.04.
The same measure, in the same setting: the value for B5 was 0.04; that for B6 was 0.05.
B7 showed an OD450 of 0.04.

Another assay addresses T2, human MSLN-FL-his protein. Briefly: ELISA, coated antigen; no antibody (blank, column 'none').
Procedure: as §1
Turning to B1, the OD450 worked out at 0.06.
In turn, B2 showed an OD450 of 0.05.
The same measure, in the same setting: the value for B3 was 0.05; that for B4 was 0.05; that for B5 was 0.06.
Molecule B6 returned an OD450 of 0.06.
Molecule B7 showed an OD450 of 0.06.

The target in the next assay is T1, human MSLN-R1-his protein. Described as above.
Procedure: as §1
B1: the OD450 stood at 0.05.
Take B2: the OD450 was 0.05.
For B3, the OD450 amounted to 0.05.
As for B4, the OD450 is 0.05.
The same measure, in the same setting: under B5 stands 0.04.
As to B6, the OD450 worked out at 0.05.
B7 had an OD450 of 0.04.
